Measured values from patent US20250011468A1 (Novo Nordisk, published 2025).

Experiments:
[1] = biological target: FIX H257A with C-terminal His-tag (human, UniProt P00740 47-461); test: SPR (Biacore T200), His-tagged FIX variant captured by anti-His antibody, one-armed antibody as analyte; % of wild-type binding
Description: (§1) SPR analyses were carried out on Biacore 4000 or Biacore T200 instruments (Biacore AB, Uppsala, Sweden). For the experiments on the T200 instrument the following conditions were applied: measurements were conducted at a temperature of 25° C. Anti-His antibody at 25 μg/ml (R&D Systems, catalogue #MAB050) was immobilized on a CM5 sensor chip using standard amine coupling chemistry. […] at 25 nM were injected at a flow rate of 10 μl/min for 1 min and were captured via their His-tag by the immobilized anti-His antibody. Subsequently, 200 nM (with 4-fold serial dilutions), 1600 nM (with 3-fold serial dilutions), and 2000 nM (with 3-fold serial dilution) of mAb4-0004, mAb3-3279 and mAb4-0673, respectively, were injected at a flow rate of 50 μl/min for 5 min to allow for binding to captured FIX variant followed by a 10 min buffer injection allowing for dissociation of the monovalent anti-FIX antibodies. The running buffer used was 20 mM Tris, 150 mM NaCl, 5 mM CaCl₂, 0.05% Tween-20, 1 mg/ml BSA, pH 7.4. This was also used for dilution of anti-FIX antibody and FIX samples. Regeneration of the chip was achieved using 10 mM Glycine pH 2.0. Binding data were analysed according to a 1:1 model using BiaEvaluation 4.1 supplied by the manufacturer (Biacore AB, Uppsala, Sweden). A similar experimental set-up was used for the Biacore 4000 instrument.
(§2) A more detailed binding analysis was conducted for residues defined as epitope residues (see example 6) using the Biacore T200 instrument.

[2] = biological target: FIX N406A with C-terminal His-tag (human, UniProt P00740 47-461); test: as above
Description: as §1, §2

[3] = biological target: FIX N258A with C-terminal His-tag (human, UniProt P00740 47-461); test: as above
Description: as §1, §2

[4] = biological target: FIX Y404F with C-terminal His-tag (human, UniProt P00740 47-461); test: as above
Description: as §1, §2

[5] = biological target: FIX H256A with C-terminal His-tag (human, UniProt P00740 47-461); test: as above
Description: as §1, §2

[6] = biological target: FIX K293A with C-terminal His-tag (human, UniProt P00740 47-461); test: as above
Description: as §1, §2

[7] = biological target: FIX E410Q with C-terminal His-tag (human, UniProt P00740 47-461); test: as above
Description: as §1, §2

[8] = biological target: FIX R403A with C-terminal His-tag (human, UniProt P00740 47-461); test: as above
Description: as §1, §2

[9] = biological target: FIX K411A with C-terminal His-tag (human, UniProt P00740 47-461); test: as above
Description: as §1, §2

[10] = biological target: T1, wild-type FIX with C-terminal His-tag (human, UniProt P00740 47-461); test: SPR (Biacore T200), His-tagged FIX captured by anti-His antibody, one-armed antibody as analyte; % of wild-type binding
T1 construct: Secreted mature FIX from expi293F cells; also called WT
Description: as §1

[11] = biological target: desGla-desEGF1-FX K420A (human, UniProt P00742 126-488); test: SPR (Biacore T200), antibody captured by anti-hIgG Fc, FX variant injected; % of wild-type binding
[12] = biological target: desGla-desEGF1-FX T127A (human, UniProt P00742 126-488); test: as above
[13] = biological target: T2, wild-type desGla-desEGF1-FX (human, UniProt P00742 126-488); test: as above
T2 construct: Expressed in HEK293; also called WT; desGLA-desEGF1-hFX

[14] = biological target: desGla-desEGF1-FX E266A (human, UniProt P00742 126-488); test: as above
[15] = biological target: desGla-desEGF1-FX T428A (human, UniProt P00742 126-488); test: as above
[16] = biological target: desGla-desEGF1-FX R113A (human, UniProt P00742 126-488); test: as above
[17] = biological target: desGla-desEGF1-FX R287A (human, UniProt P00742 126-488); test: as above
[18] = biological target: desGla-desEGF1-FX E305A (human, UniProt P00742 126-488); test: as above
[19] = biological target: desGla-desEGF1-FX A118S (human, UniProt P00742 126-488); test: as above
[20] = biological target: desGla-desEGF1-FX E103A (human, UniProt P00742 126-488); test: as above
[21] = biological target: desGla-desEGF1-FX E228A (human, UniProt P00742 126-488); test: as above
[22] = biological target: desGla-desEGF1-FX H101A (human, UniProt P00742 126-488); test: as above
[23] = biological target: desGla-desEGF1-FX T116A (human, UniProt P00742 126-488); test: as above
[24] = biological target: desGla-desEGF1-FX S227A (human, UniProt P00742 126-488); test: as above
[25] = biological target: desGla-desEGF1-FX L419A (human, UniProt P00742 126-488); test: as above
[26] = biological target: desGla-desEGF1-FX F229A (human, UniProt P00742 126-488); test: as above
[27] = biological target: desGla-desEGF1-FX Y230A (human, UniProt P00742 126-488); test: SPR (Biacore T200), antibody captured by anti-hIgG Fc, FX variant injected (10 µM); % of wild-type binding
Description: Identification of hot-spot epitope residues was done using a Biacore T200 instrument at 25° C. Anti-hIgG Fc antibody from the Human Antibody Capture Kit (GE Healthcare, Catalogue #BR100839) at 2 μg/ml was immobilized on a Series S Sensor Chip CM5 (GE Healthcare, Catalogue #BR100530) using standard amine coupling chemistry. The anti-FX antibody mAb4-6934 (monovalent variant of mAb1-6723) was injected at the flow rate of 5 μL/min for 30 sec and captured by the immobilized anti-hIgG Fc antibody. […] Binding data were analyzed using steady-state fitting according to the 1:1 model in the Biacore Evaluation Software 2.0 supplied by GE Healthcare. Binding data are reported as % binding of FX variants to the anti-FX antibody (monovalent mAb1-6723) relative to binding of the wild-type FX to the anti-FX antibody at 5 or 10 μM FX variants injected and are calculated according to the formula: […]

Sequence of FIX N406A with C-terminal His-tag (P00740 other isoform, or with tags, fused parts or gaps N406A N406A limits assumed): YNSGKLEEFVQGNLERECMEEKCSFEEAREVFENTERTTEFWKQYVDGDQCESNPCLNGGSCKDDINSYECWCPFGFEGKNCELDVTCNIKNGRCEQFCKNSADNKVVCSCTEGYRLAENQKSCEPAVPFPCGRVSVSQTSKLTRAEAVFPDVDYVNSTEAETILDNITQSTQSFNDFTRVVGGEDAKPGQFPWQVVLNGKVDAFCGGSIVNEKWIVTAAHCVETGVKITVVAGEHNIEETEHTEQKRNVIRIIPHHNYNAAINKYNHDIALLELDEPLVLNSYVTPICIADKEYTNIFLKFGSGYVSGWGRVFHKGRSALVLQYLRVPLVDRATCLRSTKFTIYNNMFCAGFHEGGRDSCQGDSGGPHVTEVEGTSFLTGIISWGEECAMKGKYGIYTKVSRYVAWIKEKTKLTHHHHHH
Sequence of FIX H256A with C-terminal His-tag (P00740 other isoform, or with tags, fused parts or gaps H256A H256A limits assumed): as the sequence (P00740 other isoform, or with tags, fused parts or gaps N406A N406A limits assumed) above, with H256A, A406N counted along it
Sequence of FIX H257A with C-terminal His-tag (P00740 other isoform, or with tags, fused parts or gaps H257A H257A limits assumed): as the sequence (P00740 other isoform, or with tags, fused parts or gaps N406A N406A limits assumed) above, with H257A, A406N counted along it
Sequence of desGla-desEGF1-FX R113A (P00742 other isoform, or with tags, fused parts or gaps R113A R113A): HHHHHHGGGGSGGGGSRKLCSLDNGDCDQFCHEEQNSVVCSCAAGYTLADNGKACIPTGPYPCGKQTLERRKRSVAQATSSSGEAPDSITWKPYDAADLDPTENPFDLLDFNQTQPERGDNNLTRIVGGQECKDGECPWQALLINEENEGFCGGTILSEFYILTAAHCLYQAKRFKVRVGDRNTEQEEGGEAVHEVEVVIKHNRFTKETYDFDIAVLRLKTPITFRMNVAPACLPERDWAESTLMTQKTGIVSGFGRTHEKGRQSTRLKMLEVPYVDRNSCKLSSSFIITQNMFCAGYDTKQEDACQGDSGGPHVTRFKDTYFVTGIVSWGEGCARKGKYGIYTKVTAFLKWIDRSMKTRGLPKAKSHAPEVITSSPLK
Sequence of desGla-desEGF1-FX E103A (P00742 other isoform, or with tags, fused parts or gaps E103A E103A): as the sequence (P00742 other isoform, or with tags, fused parts or gaps R113A R113A) above, with E34A, A44R counted along it
Sequence of desGla-desEGF1-FX E228A (P00742 other isoform, or with tags, fused parts or gaps E228A E228A): as the sequence (P00742 other isoform, or with tags, fused parts or gaps R113A R113A) above, with A44R, E159A counted along it
Sequence of desGla-desEGF1-FX H101A (P00742 other isoform, or with tags, fused parts or gaps H101A H101A): as the sequence (P00742 other isoform, or with tags, fused parts or gaps R113A R113A) above, with H32A, A44R counted along it
Sequence of desGla-desEGF1-FX T116A (P00742 other isoform, or with tags, fused parts or gaps T116A T116A): as the sequence (P00742 other isoform, or with tags, fused parts or gaps R113A R113A) above, with A44R, T47A counted along it
T2 sequence (P00742 other isoform, or with tags, fused parts or gaps): as the sequence (P00742 other isoform, or with tags, fused parts or gaps R113A R113A) above, with A44R counted along it
Sequence of FIX K293A with C-terminal His-tag (P00740 other isoform, or with tags, fused parts or gaps K293A K293A limits assumed): as the sequence (P00740 other isoform, or with tags, fused parts or gaps N406A N406A limits assumed) above, with K293A, A406N counted along it
Sequence of desGla-desEGF1-FX F229A (P00742 other isoform, or with tags, fused parts or gaps F229A F229A): as the sequence (P00742 other isoform, or with tags, fused parts or gaps R113A R113A) above, with A44R, F160A counted along it
Sequence of desGla-desEGF1-FX S227A (P00742 other isoform, or with tags, fused parts or gaps S227A S227A): as the sequence (P00742 other isoform, or with tags, fused parts or gaps R113A R113A) above, with A44R, S158A counted along it

B1: mAb3-3279 (monovalent one-armed variant of mAb1-1307) (antibody, V domains shown)
VH: EVQLVESGGGLVQPGRSLRLSCAASGFTFGDYAMHWVRQAPGKGLEWVSGISWNSGSIGYADSVKGRFTISRDNAKNSLYLQMNSLRAEDTALYYCAKGQYDEDAGMDVWGQGTTVTVSS
VL: DIQMTQSPSSLSASVGDRVTITCRASQSISSYLNWYQQKPGKAPKLLIYAASSLQSGVPSRFSGSGSGTDFTLTISSLQPEDFATYYCQQGYPTWTFGGGTKVEIK
Binding (%) relative to wild-type [1]: 8%
Binding (%) relative to wild-type [2]: 12%
Binding (%) relative to wild-type [3]: 82%
Binding (%) relative to wild-type [4]: 76%
Binding (%) relative to wild-type [5]: 32%
Binding (%) relative to wild-type [6]: 23%
Binding (%) relative to wild-type [7]: 39%
Binding (%) relative to wild-type [8]: 94%
Binding (%) relative to wild-type [9]: 71%
Binding (%) relative to wild-type [10]: 100%

B2: mAb4-6934 (monovalent one-armed variant of mAb1-6723) (antibody, V domains shown)
VH: EVQLVQSGAEVKKPGESLRISCKGSGYSFTTSWIVWVRQMPGKGLEWMGMIDPSDSFTSYSPSFQGHVTISADKSISTAYLQWSSLKASDTAMYYCARLHYYHSEEFDVWGQGTLVTVSS
VL: EIVLTQSPGTLSLSPGERATLSCRASQSVSSSYLAWYQQKPGQAPRLLIYGASSRARGIPDRFSGSGSGTDFTLTISRLEPEDFAVYYCQQFGSSRLFTFGQGTKLEIK
notes: also called monovalent mAb1-6723
Binding (%) relative to wild-type [11]: 23%
Binding (%) relative to wild-type [12]: 113%
Binding (%) relative to wild-type [13]: 100%
Binding (%) relative to wild-type [14]: 112%
Binding (%) relative to wild-type [15]: 81%
Binding (%) relative to wild-type [16]: 28%
Binding (%) relative to wild-type [17]: 66%
Binding (%) relative to wild-type [18]: 97%
Binding (%) relative to wild-type [19]: 102%
Binding (%) relative to wild-type [20]: 71%
Binding (%) relative to wild-type [21]: 80%
Binding (%) relative to wild-type [22]: 51%
Binding (%) relative to wild-type [23]: 114%
Binding (%) relative to wild-type [24]: 66%
Binding (%) relative to wild-type [25]: 50%
Binding (%) relative to wild-type [26]: 99%
Binding (%) relative to wild-type [27]: 1%
